In publication PMC3037348, “Epstein-Barr Virus Nuclear Antigen 3C Facilitates G1-S Transition by Stabilizing and Enhancing the Function of Cyclin D1” (PLoS Pathogens, 2011):

Molecular target: flag-tagged Cyclin D1 (UniProt P24385 1-295)
Test: cell-based or functional assay

Sequence of flag-tagged Cyclin D1 (P24385 whole entry): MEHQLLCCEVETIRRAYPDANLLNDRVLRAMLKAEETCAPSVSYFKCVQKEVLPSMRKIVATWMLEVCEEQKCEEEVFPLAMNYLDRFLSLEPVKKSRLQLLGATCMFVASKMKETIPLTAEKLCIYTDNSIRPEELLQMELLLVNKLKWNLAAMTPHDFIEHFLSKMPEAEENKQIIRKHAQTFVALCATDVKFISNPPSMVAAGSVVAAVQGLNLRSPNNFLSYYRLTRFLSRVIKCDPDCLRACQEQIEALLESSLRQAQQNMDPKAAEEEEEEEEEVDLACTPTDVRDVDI

B1: myc-tagged full-length EBNA3C (residues 1-992) (natural protein)
chain: MESFEGQGDSRQSPDNERGDNVQTTGEHDQDPGPGPPSSGASERLVPEESYSRDQQPWGQSRGDENRGWMQRIRRRRRRRAALSGHLLDTEDNVPPWLPPHDITPYTARNIRDAACRAVKQSHLQALSNLILDSGLDTQHILCFVMAARQRLQDIRRGPLVAEGGVGWRHWLLTSPSQSWPMGYRTATLRTLTPVPNRVGADSIMLTATFGCQNAARTLNTFSATVWTPPHAGPREQERYAREAEVRFLRGKWQRRYRRIYDLIELCGSLHHIWQNLLQTEENLLDFVRFMGVMSSCNNPAVNYWFHKTIGNFKPYYPWNAPPNENPYHARRGIKEHVIQNAFRKAQIQGLSMLATGGEPRGDATSETSSDEDTGRQGSDVELESSDDELPYIDPNMEPVQQRPVMFVSRVPAKKPRKLPWPTPKTHPVKRTNVKTSDRSDKAEAQSTPERPGPSEQSSVTVEPAHPTPVEMPMVILHQPPPVPKPVPVKPTPPPSRRRRGACVVYDDDVIEVIDVETTEDSSSVSQPNKPHRKHQDGFQRSGRRQKRAAPPTVSPSDTGPPAVGPPAAGPPAAGPPAAGPPAAGPPAAGPPAAGPRILAPLSAGPPAAGPHIVTPPSARPRIMAPPVVRMFMRERQLPQSTGRKPQCFWEMRAGREITQMQQEPSSHLQSATQPTTPRPSWAPSVCALSVMDAGKAQPIESSHLSSMSPTQPISHEEQPRYEDPDAPLDLSLHPDVAAQPAPQAPYQGYQEPPAPQAPYQGYQEPPPPQAPYQGYQEPPAHGLQSSSYPGYAGPWTPRSQHPCYRHPWAPWSQDPVHGHTQGPWDPRAPHLPPQWDGSAGHGQDQVSQFPHLQSETGPPRLQLSLVPLVSSSAPSWSSPQPRAPIRPIPTRFPPPPMPLQDSMAVGCDSSGTACPSMPFASDYSQGAFTPLDINATTPKRPRVEESSHGPARCSQATAEAQEILSDNSEISVFPKDAKQTDYDASTESELD
in vitro kinase activity of flag-Cyclin D1/CDK6 immunoprecipitates toward histone H1, HEK 293T cells transfected with increasing amounts of myc-EBNA3C vector (0, 5, 15 µg): 1.6 fold
in vitro kinase activity of flag-Cyclin D1/CDK6 immunoprecipitates toward recombinant GST-pRb (residues 792-928), HEK 293T cells transfected with increasing amounts of myc-EBNA3C vector (0, 5, 15 µg): 2.3 fold
